According to PMC2574963:

Target: Heat shock protein 90α (human) (UniProt P07900)
Assay: pull-down

percent eluted, Hsp70 alone without m3 (control beads' nonadsorbed = 100%): 18% | percent nonadsorbed, Hsp70 alone without m3 (control beads' nonadsorbed = 100%): 70%
Substance: Recombinant human Hsp70 (from UniProt P0DMV8 1-641) (natural protein)
